Series [1] relates to HEK293T cells. Description: Dynamic range / dose-responsiveness to activating ligand, firefly luciferase constructs. The class given is cell-based. The note with it: for Response to ligand in cell culture (firefly luminescence) / Dynamic Range: HEK293T cells; for Response to ligand in cell culture (firefly luminescence): dual luciferase assay, tetracycline or theophylline; for Dynamic Range: optimal copy number, 0-100 μM activating ligand; for Dynamic range compared with similar riboswitches known in the art: 0-100 μM respective ligand, with target miRNA sequence. The method, then:
The riboswitches were evaluated in HEK293T cells to determine optimal copy number (largest dynamic range) and dose-responsiveness to its activating ligand using a dual luciferase assay. The ligand used were tetracycline and theophylline.
For determining dynamic range, constructs containing firefly luciferase containing the optimal copy number of the riboswitch were made. HEK293T cells were plated on day 1, and transfected on day 2 with 1 μg of plasmid DNA. Cells were treated with 0-100 μM of the ligand corresponding to the riboswitch and the luminescence was quantified on day 3 using plate reader.
Experiments as described in Example 2A were also carried out using the newly designed Tet-SLIM and Theo-SLIM switches including target miRNA sequence, as depicted in FIGS. 12A and 13A, respectively.

In series [2] the test system is HEK293T cells. The series is described as follows: Optimal copy number of riboswitch, GFP plasmids, fluorescence plate reader. The class given is cell-based. The note with it: plasmids with 0-4 copies of riboswitch, GFP transgene. As to the method:
The protocol for both assays are outlined in FIGS. 8A and 8B. For determining optimal copy numbers, plasmids containing 0-4 copies of each riboswitch were created with the transgene as green fluorescence protein (GFP) for readout. HEK293T cells were plated in a 12-well plate and on day 2 transfected with 1 μg of each plasmid DNA. On day 3, cells were observed by fluorescent microscopy (excitation 467-498 nm) and fluorescence was quantified using a plate reader (488 nm excitation 520 nm emission).
As depicted in FIG. 9A, L2Bulge18tc riboswitch was one ON-type riboswitch tested. The cells were treated with 0 μM, 25 μM, 50 μM, 75 μM, and 100 µM of tetracycline (ligand), with the fluorescent microscopy results shown in FIG. 9D.
L2Bulge 9 was also tested (using activating ligand Theophylline), and the optimal copy number was determined to be 3.

The test system of series [3] is mouse retina. The series is described as follows: In vivo GFP fluorescence (cSLO) after intravitreal rAAV2 GFP-riboswitch cassette and ligand gavage. On the set-up: species or system C57Bl/6j mice. Particulars: delivered to the mouse retina using a rAAV2 vector. The method, then:
Next, the optimal copy number of each riboswitch was cloned into a rAAV GFP reporter cassette and packaged in an AAV2 capsid. Each GFP-riboswitch cassette was injected intravitreally into C57Bl/6j mice in combination with an AAV2 control vector harboring a non-inducible mCherry reporter gene. Four weeks post-injection, mCherry and GFP fluorescence levels were quantified in vivo using a custom ‘Multiline’ confocal scanning laser ophthalmoscope (cSLO). Mice subsequently received a dose of 1000 mg/kg of its activating ligand (tetracycline, theophylline), and fluorescence levels were quantified 2 and 24 hours post-gavage.

B1: L2Bulge9: Theophylline-responsive riboswitch, SEQ ID NO: 11 (nucleic acid)
chain: CTCGAGGCGATCGCAAACAAACAAAGCTGTCACCGGATGTGCTTTCCGGTCTGATGAGTCCGTTGTCCAATACCAGCATCGTCTTGATGCCCTTGGCAGTGGATGGGGACGGAGGACGAAACAGCAAAAAGAAAAATAAAAATTTTTTTTTTAATTAATCTTGGGCCC
For B1, in series [1], the “Response to ligand in cell culture (firefly luminescence)” value (“Response to ligand in cell culture” for short) is reported as “responded to a ligand” and the “Dynamic Range” value is 1.7-fold. For the same molecule, in series [2], the “Optimal Copy number” value amounted to 3. Moreover, in series [3], the “Response to ligand in vivo” value is “responded to a ligand”.

B2: Theo-SLIM: theophylline-responsive self-targeting ligand inactivating microRNA (SLIM) switch, SEQ ID NO: 1 (nucleic acid)
chain: CGTATCAGCAGGTCCCATAAGCTTTCGACAATTAACGAGTGTGTACTCGTTCTATCATCTCACAGTTAAAGTCGGGAGAATAGGAGCCGCACGGGTCCTGATACCAGCGTGAGCGGAGAGAATCTTCTTTCTGTCTATTAGTGAAGCCACAGATGTAATAGACAGAAAGAAGATTCTCTCCGCCTACGCCCTTGGCAGCACCGTACGGTTCGATC
As for B2, in series [1], the “Dynamic range compared with similar riboswitches known in the art” value is “increased dynamic range” and the “Dynamic Range” value is listed as 10.9-fold. Also, the “Optimal Copy number” value in series [2] is recorded as 1.

B3: GuaM8HDV: Guanine OFF switch riboswitch, SEQ ID NO: 14 (nucleic acid)
chain: ATGGCCGGCATGGTCCCAGCCTCCTCGCTGGCGCCGGCTGGGCAATGCTATAATCGCGTGGATATGGCACGCAAGTTTCTACCGGGCACCGTAAATGTCCGACTAGTAGCGAATGGGACGCACAAATCTCTCTAG
In the case of B3, the “Response to ligand in cell culture” value in series [1] is recorded as “responded to a ligand”. Moreover, the “Response to ligand in vivo” value in series [3] was “responded to a ligand”.

B4: Tet-SLIM: tetracycline-responsive self-targeting ligand inactivating microRNA (SLIM) switch, SEQ ID NO: 17 (nucleic acid)
chain: CTAGCACGGGTCCCTAAAACATACCGTGAGCGCGAAAGCGCCCCCATTTTGAGTTAGTGAAGCCACAGATGTAACTCAAAATGGGGGCGCTTTCCCGCCTACGGAGAGGTGAAGAATACGACCACCTAGAAGCTTATTGGTACATGATAACACCCCAAAATCGAAGCACTTCAAAAACACCCCAAAATCGAAGCACTTCAAAAACACCCCAAAATCGAAGCACTTCAAAAACACCCCAAAATCGAAGCACTTCAGTCTCAGGCATCGTACGATGTCGACCTGCAGG
Turning to B4, in series [1], the “Dynamic range compared with similar riboswitches known in the art” value is “increased dynamic range” and the “Dynamic Range” value is given as 2.3-fold. The “Optimal Copy number” value in series [2] is 1.

B5: Theo6HDV: Theophylline OFF switch riboswitch, SEQ ID NO: 13 (nucleic acid)
chain: ATGGCCGGCATGGTCCCAGCCTCCTCGCTGGCGCCGGCTGGGCAACCACATACCAGCCGAAAGGCCCTTGGCAGGTGGGCGAATGGGACGCACAAATCTCTCTAGCTTCCCAGAGAGAAGCGAGAGAAAAGTGGCTCTC
For the molecule B5, the “Response to ligand in cell culture” value in series [1] is recorded as “responded to a ligand”. In addition, the “Response to ligand in vivo” value in series [3] is recorded as “responded to a ligand”.

B6: K19: Tetracycline ON switch riboswitch, SEQ ID NO: 15 (nucleic acid)
chain: CAAACAAACAAAGGCGCGTCCTGGATTCGTGGTAAAACATACCAGATTTCGATCTGGAGAGGTGAAGAATACGACCACCTGTAGTATCCAGCTGATGAGTCCCAAATAGGACGAAACGCGCTAAACAAACAAAC
Regarding B6, in series [1], the “Response to ligand in cell culture” value is “responded to a ligand” and the “Dynamic Range” value is reported as 1.5-fold. Moreover, the “Optimal Copy number” value in series [2] came out at 1. Moreover, the “Response to ligand in vivo” value in series [3] is reported as “responded to a ligand”.

B7: L2Bulge18tc: Tetracycline ON switch riboswitch, SEQ ID NO: 12 (nucleic acid)
chain: CTCGAGGCGATCGCAAACAAACAAAGCTGTCACCGGATGTGCTTTCCGGTCTGATGAGTCCGTTGTCCAAAACATACCAGATTTCGATCTGGAGAGGTGAAGAATTCGACCACCTGGACGAGGACGGAGGACGAAACAGCAAAAAGAAAAATAAAAATTAATTAATCTTGGGCCC
In the case of B7, in series [1], the “Response to ligand in cell culture” value was “responded to a ligand” and the “Dynamic Range” value was 4.3-fold. The “Optimal Copy number” value in series [2] turned out to be 3. Moreover, in series [3], the “Response to ligand in vivo” value is listed as “responded to a ligand”.
